Measurements as given in patent US20220306695A1, “COMPSTATIN ANALOGUES AND THEIR MEDICAL USES” (priority 2019, published 2022).
Starred links: 1 amine or outer side, 2 acyl side, 3 side chain; linkers in the order of their positions; H or OH if unused. Positions of bridges follow the written chain, without caps; N, C: chain ends. Non-standard residues stand in square brackets, D forms with d. Groups on a side chain read outwards from the residue. *: point of attachment. Trp(1-Me) = Cn1cc(C[C@H](N)C(=O)O)c2ccccc21; C18 diacid = O=C(O)CCCCCCCCCCCCCCCCC(=O)*; γGlu = O=C(O)[C@H](CCC(=O)[*:2])N[*:1]; AEEA = NCCOCCOCC(=O)O; Sar = CNCC(=O)O

Target: Human C3 (human, UniProt P01024 23-1663)
Sequence (P01024 23-1663 limits assumed): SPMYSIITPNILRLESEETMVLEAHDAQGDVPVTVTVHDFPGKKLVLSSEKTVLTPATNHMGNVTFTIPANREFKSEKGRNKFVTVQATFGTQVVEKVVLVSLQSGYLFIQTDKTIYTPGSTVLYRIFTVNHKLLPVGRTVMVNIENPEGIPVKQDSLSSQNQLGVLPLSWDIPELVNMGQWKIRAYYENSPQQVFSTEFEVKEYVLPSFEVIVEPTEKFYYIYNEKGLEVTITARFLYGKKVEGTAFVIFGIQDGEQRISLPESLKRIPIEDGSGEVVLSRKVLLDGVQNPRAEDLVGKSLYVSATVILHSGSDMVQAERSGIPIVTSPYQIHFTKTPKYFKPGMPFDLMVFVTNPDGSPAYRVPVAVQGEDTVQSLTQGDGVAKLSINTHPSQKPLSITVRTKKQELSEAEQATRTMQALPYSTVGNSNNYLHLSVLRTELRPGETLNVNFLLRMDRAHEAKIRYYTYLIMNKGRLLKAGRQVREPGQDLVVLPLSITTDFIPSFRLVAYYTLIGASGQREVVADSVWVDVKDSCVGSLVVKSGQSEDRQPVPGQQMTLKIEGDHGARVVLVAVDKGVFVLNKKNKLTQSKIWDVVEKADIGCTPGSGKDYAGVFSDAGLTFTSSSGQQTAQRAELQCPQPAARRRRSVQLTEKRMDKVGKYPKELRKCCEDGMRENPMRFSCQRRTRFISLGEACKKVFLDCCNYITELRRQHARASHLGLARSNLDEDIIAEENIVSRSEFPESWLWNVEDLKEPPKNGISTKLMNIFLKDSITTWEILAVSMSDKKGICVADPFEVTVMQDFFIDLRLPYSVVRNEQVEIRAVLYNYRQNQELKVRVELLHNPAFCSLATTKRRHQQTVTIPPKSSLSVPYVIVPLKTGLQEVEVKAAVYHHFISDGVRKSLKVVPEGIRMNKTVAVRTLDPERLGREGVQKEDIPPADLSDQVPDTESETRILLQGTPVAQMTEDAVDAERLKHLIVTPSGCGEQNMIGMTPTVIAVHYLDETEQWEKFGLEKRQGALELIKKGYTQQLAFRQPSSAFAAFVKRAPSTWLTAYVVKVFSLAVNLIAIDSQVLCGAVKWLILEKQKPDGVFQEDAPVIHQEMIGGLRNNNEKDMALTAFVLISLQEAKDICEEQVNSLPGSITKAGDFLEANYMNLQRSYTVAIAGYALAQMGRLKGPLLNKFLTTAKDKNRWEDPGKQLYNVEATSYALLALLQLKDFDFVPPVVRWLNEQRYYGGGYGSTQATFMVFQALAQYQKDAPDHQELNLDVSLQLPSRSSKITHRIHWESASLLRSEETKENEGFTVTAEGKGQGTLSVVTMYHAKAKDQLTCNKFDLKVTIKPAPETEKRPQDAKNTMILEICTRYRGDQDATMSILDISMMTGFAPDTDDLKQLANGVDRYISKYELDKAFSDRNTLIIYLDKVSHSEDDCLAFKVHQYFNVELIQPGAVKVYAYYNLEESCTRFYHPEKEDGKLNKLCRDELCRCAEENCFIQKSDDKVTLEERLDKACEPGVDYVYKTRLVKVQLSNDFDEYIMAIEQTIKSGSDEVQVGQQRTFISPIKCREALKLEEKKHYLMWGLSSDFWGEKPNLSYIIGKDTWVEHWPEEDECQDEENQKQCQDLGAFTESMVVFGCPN
Assay: cell-based or functional assay

B1: Compound 137 (peptide)
peptide: Ac-SEFCI[Trp(1-Me)]QDWGEHRCTEGE[8‑aminooctanoyl]EK([γGlu-Gly-γGlu-C18 diacid])-NH2
modifications: disulfide 4-14
- IC50[nM], inhibition of hemolysis: < 100 nM

B2: Compound 132 (peptide)
peptide: Ac-SEFCI[Trp(1-Me)]QDWGEHRC[Sar]EK[γGlu]GGGK([γGlu-Gly-γGlu-C18 diacid])-NH2
modifications: disulfide 4-14
SMILES: CC[C@H](C)[C@@H]1NC(=O)[C@@H](NC(=O)[C@H](Cc2ccccc2)NC(=O)[C@H](CCC(=O)O)NC(=O)[C@H](CO)NC(C)=O)CSSC[C@@H](C(=O)N(C)CC(=O)N[C@@H](CCC(=O)O)C(=O)N[C@@H](CCCCN)C(=O)N[C@@H](CCC(=O)NCC(=O)NCC(=O)NCC(=O)N[C@@H](CCCCNC(=O)CC[C@H](NC(=O)CNC(=O)CC[C@H](NC(=O)CCCCCCCCCCCCCCCCC(=O)O)C(=O)O)C(=O)O)C(N)=O)C(=O)O)NC(=O)[C@H](CCCNC(=N)N)NC(=O)[C@H](Cc2c[nH]cn2)NC(=O)[C@H](CCC(=O)O)NC(=O)CNC(=O)[C@H](Cc2c[nH]c3ccccc23)NC(=O)[C@H](CC(=O)O)NC(=O)[C@H](CCC(N)=O)NC(=O)[C@H](Cc2cn(C)c3ccccc23)NC1=O
- IC50[nM], inhibition of hemolysis: < 100 nM

B3: Compound 138 (peptide)
peptide: Ac-SEFCI[Trp(1-Me)]QDWGEHRC[Sar]EGE[AEEA]K([γGlu-Gly-γGlu-C18 diacid])-NH2
modifications: disulfide 4-14
- IC50[nM], inhibition of hemolysis: < 100 nM

B4: Compound 136 (peptide)
peptide: Ac-SEFCI[Trp(1-Me)]QDWGEHRCTEGE[8‑aminooctanoyl]K([γGlu-Gly-γGlu-C18 diacid])-NH2
modifications: disulfide 4-14
- IC50[nM], inhibition of hemolysis: < 100 nM

B5: Compound 134 (peptide)
peptide: Ac-EFCI[Trp(1-Me)]QDWGEHRCEGEK([γGlu-Gly-γGlu-C18 diacid])-NH2
modifications: disulfide 3-13
SMILES: CC[C@H](C)[C@@H]1NC(=O)[C@@H](NC(=O)[C@H](Cc2ccccc2)NC(=O)[C@H](CCC(=O)O)NC(C)=O)CSSC[C@@H](C(=O)N[C@@H](CCC(=O)O)C(=O)NCC(=O)N[C@@H](CCC(=O)O)C(=O)N[C@@H](CCCCNC(=O)CC[C@H](NC(=O)CNC(=O)CC[C@H](NC(=O)CCCCCCCCCCCCCCCCC(=O)O)C(=O)O)C(=O)O)C(N)=O)NC(=O)[C@H](CCCNC(=N)N)NC(=O)[C@H](Cc2c[nH]cn2)NC(=O)[C@H](CCC(=O)O)NC(=O)CNC(=O)[C@H](Cc2c[nH]c3ccccc23)NC(=O)[C@H](CC(=O)O)NC(=O)[C@H](CCC(N)=O)NC(=O)[C@H](Cc2cn(C)c3ccccc23)NC1=O
- IC50[nM], inhibition of hemolysis: < 100 nM

B6: Compound 133 (peptide)
peptide: Ac-SEFCI[Trp(1-Me)]QDWGEHRCTEK[γGlu]GGGK([γGlu-Gly-γGlu-C18 diacid])-NH2
modifications: disulfide 4-14
SMILES: CC[C@H](C)[C@@H]1NC(=O)[C@@H](NC(=O)[C@H](Cc2ccccc2)NC(=O)[C@H](CCC(=O)O)NC(=O)[C@H](CO)NC(C)=O)CSSC[C@@H](C(=O)N[C@H](C(=O)N[C@@H](CCC(=O)O)C(=O)N[C@@H](CCCCN)C(=O)N[C@@H](CCC(=O)NCC(=O)NCC(=O)NCC(=O)N[C@@H](CCCCNC(=O)CC[C@H](NC(=O)CNC(=O)CC[C@H](NC(=O)CCCCCCCCCCCCCCCCC(=O)O)C(=O)O)C(=O)O)C(N)=O)C(=O)O)[C@@H](C)O)NC(=O)[C@H](CCCNC(=N)N)NC(=O)[C@H](Cc2c[nH]cn2)NC(=O)[C@H](CCC(=O)O)NC(=O)CNC(=O)[C@H](Cc2c[nH]c3ccccc23)NC(=O)[C@H](CC(=O)O)NC(=O)[C@H](CCC(N)=O)NC(=O)[C@H](Cc2cn(C)c3ccccc23)NC1=O
- IC50[nM], inhibition of hemolysis: < 100 nM

B7: Compound 135 (peptide)
peptide: Ac-SEFCI[Trp(1-Me)]QDWGEHRCTGAESK([γGlu-Gly-γGlu-15‑carboxy‑hexadecanoyl])-NH2
modifications: disulfide 4-14
- IC50[nM], inhibition of hemolysis: < 100 nM
